This is an account of results in PMC2230540 (The Journal of General Physiology, 1999).

Broadly, the stoichiometry N is the number of molecules, sites or subunits per partner or assembly.

This data set deals with the molecule itself. Put plainly: cross-linking.

B1: EriC, Escherichia coli ClC-type Cl- channel homologue, product of the yadQ gene (natural protein, UniProt P37019 1-473, looked up)
chain: MKTDTPSLETPQAARLRRRQLIRQLLERDKTPLAILFMAAVVGTLVGLAAVAFDKGVAWLQNQRMGALVHTADNYPLLLTVAFLCSAVLAMFGYFLVRKYAPEAGGSGIPEIEGALEDQRPVRWWRVLPVKFFGGLGTLGGGMVLGREGPTVQIGGNIGRMVLDIFRLKGDEARHTLLATGAAAGLAAAFNAPLAGILFIIEEMRPQFRYTLISIKAVFIGVIMSTIMYRIFNHEVALIDVGKLSDAPLNTLWLYLILGIIFGIFGPIFNKWVLGMQDLLHRVHGGNITKWVLMGGAIGGLCGLLGFVAPATSGGGFNLIPIATAGNFSMGMLVFIFVARVITTLLCFSSGAPGGIFAPMLALGTVLGTAFGMVAVELFPQYHLEAGTFAIAGMGALLAASIRAPLTGIILVLEMTDNYQLILPMIITGLGATLLAQFTGGKPLYSAILARTLAKQEAEQLARSKAASASENT
As for B1, the “stoichiometry N” value amounted to 2.
